From patent US20250250343A1 (UNITY BIOTECHNOLOGY, published 2025)
Where two headings read alike, the source gives them in different places.

Experiments:
Experiment in all cases: cell-based or functional assay
human Tie2 [1] = target: T1, human Tie2 (human, UniProt Q02763 23-1124)
human Tie2 [2] = target: T1, human Tie2; remark: listed apart in the source
human Tie2 [3] = target: T1, human Tie2; remark: listed apart in the source
VEGF [4] = target: T2, VEGF (human, UniProt P15692-4)
human Tie2 [5] = target: T1, human Tie2; remark: listed apart in the source
VEGF [6] = target: T2, VEGF; remark: listed apart in the source
human Tie2 [7] = target: T1, human Tie2; remark: listed apart in the source
human Tie2 [8] = target: T1, human Tie2; remark: listed apart in the source
human Tie2 [9] = target: T1, human Tie2; remark: listed apart in the source
VEGF [10] = target: T2, VEGF; remark: listed apart in the source
VEGF [11] = target: T2, VEGF; remark: listed apart in the source
human Tie2 [12] = target: T1, human Tie2; remark: listed apart in the source

T1 sequence (Q02763 23-1124): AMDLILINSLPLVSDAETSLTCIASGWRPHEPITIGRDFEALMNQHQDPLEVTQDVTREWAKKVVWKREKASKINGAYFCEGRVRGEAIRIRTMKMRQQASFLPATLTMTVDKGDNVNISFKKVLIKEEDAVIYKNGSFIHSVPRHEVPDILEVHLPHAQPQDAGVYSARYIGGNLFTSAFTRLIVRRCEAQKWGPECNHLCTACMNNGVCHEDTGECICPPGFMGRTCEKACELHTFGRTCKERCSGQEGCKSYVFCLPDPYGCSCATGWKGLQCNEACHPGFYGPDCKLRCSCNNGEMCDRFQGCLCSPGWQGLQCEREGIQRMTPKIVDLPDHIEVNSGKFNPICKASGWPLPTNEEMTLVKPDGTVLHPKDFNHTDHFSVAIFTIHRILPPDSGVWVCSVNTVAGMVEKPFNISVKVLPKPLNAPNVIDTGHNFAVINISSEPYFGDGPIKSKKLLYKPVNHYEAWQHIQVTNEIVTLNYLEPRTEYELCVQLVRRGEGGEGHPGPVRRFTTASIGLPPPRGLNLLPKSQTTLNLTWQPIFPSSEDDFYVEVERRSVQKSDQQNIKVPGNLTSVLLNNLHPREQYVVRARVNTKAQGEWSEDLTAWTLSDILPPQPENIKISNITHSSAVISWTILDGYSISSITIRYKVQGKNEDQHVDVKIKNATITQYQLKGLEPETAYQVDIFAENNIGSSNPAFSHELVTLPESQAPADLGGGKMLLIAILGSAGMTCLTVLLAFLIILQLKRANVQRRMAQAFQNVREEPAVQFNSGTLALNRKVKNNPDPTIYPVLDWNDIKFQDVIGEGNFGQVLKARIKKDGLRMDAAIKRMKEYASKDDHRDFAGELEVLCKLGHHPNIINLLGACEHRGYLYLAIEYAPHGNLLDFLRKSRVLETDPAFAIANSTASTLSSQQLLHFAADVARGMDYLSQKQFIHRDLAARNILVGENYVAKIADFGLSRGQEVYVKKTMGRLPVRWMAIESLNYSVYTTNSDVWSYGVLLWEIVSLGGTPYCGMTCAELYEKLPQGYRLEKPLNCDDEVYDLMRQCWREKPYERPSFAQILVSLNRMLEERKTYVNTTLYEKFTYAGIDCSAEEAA
T2 sequence (P15692 other isoform, or with tags, fused parts or gaps limits assumed): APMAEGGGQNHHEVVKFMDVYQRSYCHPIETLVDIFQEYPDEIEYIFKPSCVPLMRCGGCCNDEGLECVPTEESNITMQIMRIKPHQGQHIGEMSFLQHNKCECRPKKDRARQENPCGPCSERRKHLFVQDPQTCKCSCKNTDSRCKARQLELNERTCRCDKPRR

B1: Construct #1 (bispecific antibody, human IgG1, kappa, L234A L235A)
heavy: DVQLVESGGGVVRPGESLRLSCTASGFTFDSYGMSWVRQAPGKGLEWVSSINVGDNTYYADSVRGRFIISRDSSRNTLYLQMNSLTAEDTAVYYCANWNSFFDYWGLGTLVTVSSASTKGPSVFPLAPSSKSTSGGTAALGCLVKDYFPEPVTVSWNSGALTSGVHTFPAVLQSSGLYSLSSVVTVPSSSLGTQTYICNVNHKPSNTKVDKKVEPKSCDKTHTCPPCPAPEAAGGPSVFLFPPKPKDTLMISRTPEVTCVVVDVSHEDPEVKFNWYVDGVEVHNAKTKPREEQYNSTYRVVSVLTVLHQDWLNGKEYKCKVSNKALGAPIEKTISKAKGQPREPQVYTLPPSREEMTKNQVSLTCLVKGFYPSDIAVEWESNGQPENNYKTTPPVLDSDGSFFLYSKLTVDKSRWQQGNVFSCSVMHEALHNHYTQKSLSLSPGKSDTGRPFVEMYSEIPEIIHMTEGRELVIPCRVTSPNITVTLKKFPLDTLIPDGKRIIWDSRKGFIISNATYKEIGLLTCEATVNGHLYKTNYLTHRQTNTIIDVVLSPSHGIELSVGEKLVLNCTARTELNVGIDFNWEYPSSKHQHKKLVNRDLKTQSGSEMKKFLSTLTIDGVTRSDQGLYTCAASSGLMTKKNSTFVRVHEK
light: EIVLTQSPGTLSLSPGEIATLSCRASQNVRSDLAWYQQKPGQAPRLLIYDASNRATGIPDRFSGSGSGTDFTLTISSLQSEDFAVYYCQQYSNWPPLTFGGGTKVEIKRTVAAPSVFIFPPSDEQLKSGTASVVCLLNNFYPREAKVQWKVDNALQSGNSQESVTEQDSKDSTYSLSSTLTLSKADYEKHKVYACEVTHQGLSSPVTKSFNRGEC
With B1 the “phosphorylated Akt potency in HUVEC cells, against Construct #5” value (human Tie2 [1]) was ~5 fold, the “EC50, pAkt in HUVEC (MSD ELISA) [Panel B]” value (shortened to “EC50, pAkt in HUVEC”) (human Tie2 [2]) was 0.909 nM and the “EC50, pTie2 in HUVEC, W/ VEGF (20 nM VEGF-165 per paragraph 153) [Panel E]” value (human Tie2 [3]) was 0.39 nM. The “EC50, pTie2 in HUVEC, W/O VEGF [Panel E]” value (human Tie2 [3]) was 1.33 nM, the “EC50, VEGF neutralisation, KDR/NFAT-RE HEK293 luciferase reporter” value (VEGF [4]) was 1.3 nM and the “EC50, pTie2 in HUVEC (in vitro potency)” value (human Tie2 [5]) was 4.2 nM. For the same binder, the “EC50, VEGF inhibition, KDR/NFAT-RE HEK293 luciferase reporter [Panel C]” value (VEGF [6]) was 1.6 nM, the “EC50, pTIE2 in HUVEC [Panel C]” value (human Tie2 [7]) was 3.56 nM and the “EC50, pTie2 in HUVEC, W/ VEGF (panels A-C print 'W/ VEGF 50nM'; paragraph 153 says 20 nM) [Panel D]” value (human Tie2 [8]) was 0.39 nM. The “EC50, pTie2 in HUVEC, W/O VEGF [Panel D]” value (human Tie2 [8]) was 1.33 nM and the “EC50, pAkt in HUVEC” value (human Tie2 [9]) was 1.33 nM.

B2: #13 (bispecific antibody, human IgG1, kappa, L234A L235A)
heavy chain: DVQLVESGGGVVRPGESLRLSCTASGFTFDSYGMSWVRQAPGKGLEWVSSINVGDNTYYADSVRGRFIISRDSSRNTLYLQMNSLTAEDTAVYYCANWNSFFDYWGLGTLVTVSSASTKGPSVFPLAPSSKSTSGGTAALGCLVKDYFPEPVTVSWNSGALTSGVHTFPAVLQSSGLYSLSSVVTVPSSSLGTQTYICNVNHKPSNTKVDKKVEPKSCDKTHTCPPCPAPEAAGGPSVFLFPPKPKDTLMISRTPEVTCVVVDVSHEDPEVKFNWYVDGVEVHNAKTKPREEQYNSTYRVVSVLTVLHQDWLNGKEYKCKVSNKALGAPIEKTISKAKGQPREPQVYTLPPSREEMTKNQVSLTCLVKGFYPSDIAVEWESNGQPENNYKTTPPVLDSDGSFFLYSKLTVDKSRWQQGNVFSCSVMHEALHNHYTQKSLSLSPGKKEHVRVFTSNKKTMLGSSAACTYLGQDSRTVGDITLTSLFKKMESGSQTKLDRNVLKKHQHKSSPYEWNFDIGVNLETRATCNLVLKEGVSLEIGHSPSLVVDIITNTQRHTLYNTKYLHGNVTAECTLLGIEKYTANSIIFGKRSDWIIRKGDPILTDLPFKKLTVTINPSTVRCPIVLERGETMHIIEPIESYMEVFPRGTDS
light chain (kappa): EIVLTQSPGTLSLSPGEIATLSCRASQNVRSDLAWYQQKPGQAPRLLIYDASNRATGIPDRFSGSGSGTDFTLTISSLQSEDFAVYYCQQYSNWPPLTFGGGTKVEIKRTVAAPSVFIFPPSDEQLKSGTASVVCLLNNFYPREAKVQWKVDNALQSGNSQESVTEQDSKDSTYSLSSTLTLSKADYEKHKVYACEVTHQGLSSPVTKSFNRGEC
With B2 the “EC50, VEGF neutralisation, KDR/NFAT-RE HEK293 luciferase reporter” value (VEGF [4]) was 0.854 nM.

B3: Construct #3 (bispecific antibody, human IgG1, kappa, L234A L235A)
heavy: DVQLVESGGGVVRPGESLRLSCTASGFTFDSYGMSWVRQAPGKGLEWVSSINVGDNTYYADSVRGRFIISRDSSRNTLYLQMNSLTAEDTAVYYCANWNSFFDYWGLGTLVTVSSASTKGPSVFPLAPSSKSTSGGTAALGCLVKDYFPEPVTVSWNSGALTSGVHTFPAVLQSSGLYSLSSVVTVPSSSLGTQTYICNVNHKPSNTKVDKKVEPKSCDKTHTCPPCPAPEAAGGPSVFLFPPKPKDTLMISRTPEVTCVVVDVSHEDPEVKFNWYVDGVEVHNAKTKPREEQYNSTYRVVSVLTVLHQDWLNGKEYKCKVSNKALGAPIEKTISKAKGQPREPQVYTLPPSREEMTKNQVSLTCLVKGFYPSDIAVEWESNGQPENNYKTTPPVLDSDGSFFLYSKLTVDKSRWQQGNVFSCSVMHEALHNHYTQKSLSLSPGKGGGGSGGGGSGGGGSSDTGRPFVEMYSEIPEIIHMTEGRELVIPCRVTSPNITVTLKKFPLDTLIPDGKRIIWDSRKGFIISNATYKEIGLLTCEATVNGHLYKTNYLTHRQTNTIIDVVLSPSHGIELSVGEKLVLNCTARTELNVGIDFNWEYPSSKHQHKKLVNRDLKTQSGSEMKKFLSTLTIDGVTRSDQGLYTCAASSGLMTKKNSTFVRVHEK
light: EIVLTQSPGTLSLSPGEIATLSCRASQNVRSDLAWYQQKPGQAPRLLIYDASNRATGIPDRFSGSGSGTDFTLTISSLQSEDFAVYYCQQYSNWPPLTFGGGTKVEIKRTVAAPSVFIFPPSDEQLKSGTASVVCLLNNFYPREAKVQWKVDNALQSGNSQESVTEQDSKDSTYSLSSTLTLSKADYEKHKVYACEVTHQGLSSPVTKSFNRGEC
In the case of B3, the “EC50, VEGF neutralisation, KDR/NFAT-RE HEK293 luciferase reporter” value (VEGF [4]) is reported as 0.245 nM, the “EC50, pTie2 in HUVEC (in vitro potency)” value (human Tie2 [5]) is reported as 3.55 nM and the “EC50, VEGF inhibition, KDR/NFAT-RE HEK293 luciferase reporter [Panel C]” value (VEGF [6]) is reported as 0.31 nM. For the same binder, the “EC50, pTIE2 in HUVEC [Panel C]” value (human Tie2 [7]) was 2.42 nM, the “EC50, pTie2 in HUVEC, W/ VEGF (panels A-C print 'W/ VEGF 50nM'; paragraph 153 says 20 nM) [Panel D]” value (human Tie2 [8]) was 0.87 nM and the “EC50, pTie2 in HUVEC, W/O VEGF [Panel D]” value (human Tie2 [8]) was 2.24 nM. The “EC50, pAkt in HUVEC” value (human Tie2 [9]) was 0.87 nM.

B4: #11 (bispecific antibody, human IgG1, kappa, L234A L235A)
heavy chain: DVQLVESGGGVVRPGESLRLSCTASGFTFDSYGMSWVRQAPGKGLEWVSSINVGDNTYYADSVRGRFIISRDSSRNTLYLQMNSLTAEDTAVYYCANWNSFFDYWGLGTLVTVSSASTKGPSVFPLAPSSKSTSGGTAALGCLVKDYFPEPVTVSWNSGALTSGVHTFPAVLQSSGLYSLSSVVTVPSSSLGTQTYICNVNHKPSNTKVDKKVEPKSCDKTHTCPPCPAPEAAGGPSVFLFPPKPKDTLMASRTPEVTCVVVDVSHEDPEVKFNWYVDGVEVHNAKTKPREEQYNSTYRVVSVLTVLAQDWLNGKEYKCKVSNKALGAPIEKTISKAKGQPREPQVYTLPPSREEMTKNQVSLTCLVKGFYPSDIAVEWESNGQPENNYKTTPPVLDSDGSFFLYSKLTVDKSRWQQGNVFSCSVMHEALHNAYTQKSLSLSPGKGGGGSGGGGSDIQLTQSPSSLSASVGDRVTITCSASQDISNYLNWYQQKPGKAPKVLIYFTSSLHSGVPSRFSGSGSGTDFTLTISSLQPEDFATYYCQQYSTVPWTFGQGTKVEIKGQSSRSSGGGGSSGGGGSEVQLVESGGGLVQPGGSLRLSCAASGYDFTHYGMNWVRQAPGKGLEWVGWINTYTGEPTYAADFKRRFTFSLDTSKSTAYLQMNSLRAEDTAVYYCAKYPYYYGTSHWYFDVWGQGTLVTVSS
light chain (kappa): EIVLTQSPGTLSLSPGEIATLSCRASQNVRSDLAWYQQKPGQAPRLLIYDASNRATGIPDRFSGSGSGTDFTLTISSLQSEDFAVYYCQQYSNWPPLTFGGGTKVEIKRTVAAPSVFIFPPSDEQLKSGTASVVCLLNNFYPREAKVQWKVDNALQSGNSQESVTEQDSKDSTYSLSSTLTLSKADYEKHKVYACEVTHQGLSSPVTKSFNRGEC
With B4 the “EC50, VEGF neutralisation, KDR/NFAT-RE HEK293 luciferase reporter (the sheet's head prints no unit, EC50 in nM per legend paragraph 17)” value (VEGF [10]) was 0.107 nM.

B5: #2 (bispecific antibody, human IgG1, kappa, L234A L235A)
heavy chain: DVQLVESGGGVVRPGESLRLSCTASGFTFDSYGMSWVRQAPGKGLEWVSSINVGDNTYYADSVRGRFIISRDSSRNTLYLQMNSLTAEDTAVYYCANWNSFFDYWGLGTLVTVSSASTKGPSVFPLAPSSKSTSGGTAALGCLVKDYFPEPVTVSWNSGALTSGVHTFPAVLQSSGLYSLSSVVTVPSSSLGTQTYICNVNHKPSNTKVDKKVEPKSCDKTHTCPPCPAPEAAGGPSVFLFPPKPKDTLMISRTPEVTCVVVDVSHEDPEVKFNWYVDGVEVHNAKTKPREEQYNSTYRVVSVLTVLHQDWLNGKEYKCKVSNKALGAPIEKTISKAKGQPREPQVYTLPPSREEMTKNQVSLTCLVKGFYPSDIAVEWESNGQPENNYKTTPPVLDSDGSFFLYSKLTVDKSRWQQGNVFSCSVMHEALHNHYTQKSLSLSPGKGGGGSGGGGSDIQMTQSPSSLSASVGDRVTITCRASQVIRRSLAWYQQKPGKAPKLLIYAASNLASGVPSRFSGSGSGTDFTLTISSLQPEDFATYYCQQSNTSPLTFGQGTKVEIKGQSSRSSGGGGSSGGGGSEVQLVESGGGLVQPGGSLRLSCAASGFSINGSWIFWVRQAPGKGLEWVGAIWPFGGYTHYADSVKGRFTISADTSKNTAYLQMNSLRAEDTAVYYCARWGHSTSPWAMDYWGQGTLVTVSS
light chain (kappa): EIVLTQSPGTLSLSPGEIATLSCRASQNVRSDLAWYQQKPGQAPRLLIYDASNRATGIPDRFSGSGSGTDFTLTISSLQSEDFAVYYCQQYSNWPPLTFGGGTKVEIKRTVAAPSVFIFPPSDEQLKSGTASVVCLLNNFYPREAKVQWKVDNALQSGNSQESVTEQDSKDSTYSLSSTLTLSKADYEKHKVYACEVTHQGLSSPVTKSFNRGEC
For B5, the “IC50 (read off the curve); % VEGF activity, KDR/NFAT-RE HEK293 luciferase reporter [Panel A]” value (VEGF [11]) was ~1 nM, the “EC50, VEGF neutralisation, KDR/NFAT-RE HEK293 luciferase reporter (the sheet's head prints no unit, EC50 in nM per legend paragraph 17)” value (VEGF [10]) was 0.9 nM and the “EC50, pTie2 in HUVEC (in vitro potency; the sheet's head prints no unit, EC50 in nM per legend paragraph 17)” value (human Tie2 [12]) was 2.1 nM.
